Reference: patent US20020147129A1
Where no end group is shown, it is not given here.

B1: angiotensin IV (peptide)
peptide: VYIHPF
modifications: also: same id also used for [125I]Ang IV tracer, radioiodinated with chloramine T

Assays:
[1] = molecular target: embryonic chicken AT4 receptor (chicken); test: cell-based or functional assay
[2] = molecular target: AT4 receptor of bovine adrenal membranes (bovine); test: competition for 125I-Ang IV binding, bovine adrenal membranes
[3] = molecular target: angiotensin AT4 receptor of Macaca fascicularis brain (Macaca fascicularis); test: competition for [125I]Ang IV binding, monkey prefrontal cortical sections
[4] = molecular target: AT4 receptor of sheep central nervous system (sheep); test: competition for [125I]Ang IV binding, sheep cerebellar cortical membranes
[5] = molecular target: embryonic chicken AT4 receptor (chicken); test: competition for [125I]Ang IV binding, E13 chicken chorioallantoic membranes
[6] = molecular target: AT4 receptor of sheep central nervous system (sheep); test: competition for 125I-LVV-haemorphin-7 binding, sheep cerebellar cortical membranes
[7] = molecular target: embryonic chicken Ang II receptor (chicken); test: competition for 125I[Sar1Ile8]Ang II binding, E13 chicken chorioallantoic membranes
Chain of embryonic chicken Ang II receptor (chicken) (P79785 whole entry): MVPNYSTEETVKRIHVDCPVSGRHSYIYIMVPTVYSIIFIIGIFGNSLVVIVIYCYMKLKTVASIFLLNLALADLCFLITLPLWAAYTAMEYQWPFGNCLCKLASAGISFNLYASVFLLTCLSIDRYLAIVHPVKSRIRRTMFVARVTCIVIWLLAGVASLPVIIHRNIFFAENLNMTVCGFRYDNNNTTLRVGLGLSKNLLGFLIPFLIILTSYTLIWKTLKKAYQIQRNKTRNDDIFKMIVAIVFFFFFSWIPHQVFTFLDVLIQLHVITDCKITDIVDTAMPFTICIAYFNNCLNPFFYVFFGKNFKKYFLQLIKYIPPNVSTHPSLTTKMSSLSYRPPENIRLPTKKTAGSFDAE

Chain of embryonic chicken AT4 receptor (chicken) (F1NNE7 entry or part of it): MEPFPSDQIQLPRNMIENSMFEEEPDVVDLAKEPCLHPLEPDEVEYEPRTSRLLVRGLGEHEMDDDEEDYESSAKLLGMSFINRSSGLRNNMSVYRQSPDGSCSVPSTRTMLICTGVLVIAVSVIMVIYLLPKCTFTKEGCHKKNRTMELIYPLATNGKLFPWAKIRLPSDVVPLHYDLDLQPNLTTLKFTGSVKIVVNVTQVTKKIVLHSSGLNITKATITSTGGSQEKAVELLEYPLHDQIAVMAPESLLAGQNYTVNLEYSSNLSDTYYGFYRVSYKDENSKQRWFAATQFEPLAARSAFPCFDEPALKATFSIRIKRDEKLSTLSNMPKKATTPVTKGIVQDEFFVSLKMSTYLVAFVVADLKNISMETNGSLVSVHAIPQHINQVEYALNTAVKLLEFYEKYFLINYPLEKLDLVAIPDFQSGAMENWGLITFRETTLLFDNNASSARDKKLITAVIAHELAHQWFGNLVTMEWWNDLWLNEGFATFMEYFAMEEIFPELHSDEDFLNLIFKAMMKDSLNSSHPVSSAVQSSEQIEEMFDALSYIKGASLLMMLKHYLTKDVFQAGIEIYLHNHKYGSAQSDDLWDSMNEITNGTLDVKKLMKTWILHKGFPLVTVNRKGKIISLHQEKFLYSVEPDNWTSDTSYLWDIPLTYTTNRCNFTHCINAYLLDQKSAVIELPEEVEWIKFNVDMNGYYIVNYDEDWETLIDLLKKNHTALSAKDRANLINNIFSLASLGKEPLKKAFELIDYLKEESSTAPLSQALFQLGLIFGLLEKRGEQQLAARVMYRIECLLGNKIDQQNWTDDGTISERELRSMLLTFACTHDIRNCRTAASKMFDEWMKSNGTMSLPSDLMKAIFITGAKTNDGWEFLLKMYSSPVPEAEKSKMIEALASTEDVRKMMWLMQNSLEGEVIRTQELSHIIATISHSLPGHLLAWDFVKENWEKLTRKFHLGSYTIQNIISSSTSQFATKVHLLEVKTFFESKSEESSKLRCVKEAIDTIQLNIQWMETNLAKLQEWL

Row | Binder | inhibition of neurite outgrowth from E11 chicken sympathetic neurons: half maximal inhibition [1] [pM] | inhibition of neurite outgrowth from E11 chicken sympathetic neurons: maximal effect [1] [nM] | inhibition of neurite outgrowth from E11 chicken sympathetic neurons: threshold [1] [pM] | affinity in competing for ^125I-Ang IV binding [2] [nM] | IC50 [3] [nM] | IC50 [4] [nM] | IC50 [5] [nM] | IC50 [6] [nM] | IC50 [7] [nM]
1 | B1 | 100 | 1 | 10 | 1 to 5 | 5 | 1.13 | 18 | 1 | 50000
2 | LVVYPWTQRF [LVV-haemorphin-7] | – | – | – | 1 to 5 | – | 2 | – | 5.6 | –
